In IntAct's records for PubMed 31515488:

B1: Interferon-induced protein with tetratricopeptide repeats 2 (Homo sapiens), P09913 (parent)
chain: MSENNKNSLESSLRQLKCHFTWNLMEGENSLDDFEDKVFYRTEFQNREFKATMCNLLAYLKHLKGQNEAALECLRKAEELIQQEHADQAEIRSLVTWGNYAWVYYHMGRLSDVQIYVDKVKHVCEKFSSPYRIESPELDCEEGWTRLKCGGNQNERAKVCFEKALEKKPKNPEFTSGLAIASYRLDNWPPSQNAIDPLRQAIRLNPDNQYLKVLLALKLHKMREEGEEEGEGEKLVEEALEKAPGVTDVLRSAAKFYRRKDEPDKAIELLKKALEYIPNNAYLHCQIGCCYRAKVFQVMNLRENGMYGKRKLLELIGHAVAHLKKADEANDNLFRVCSILASLHALADQYEDAEYYFQKEFSKELTPVAKQLLHLRYGNFQLYQMKCEDKAIHHFIEGVKINQKSREKEKMKDKLQKIAKMRLSKNGADSEALHVLAFLQELNEKMQQADEDSERGLESGSLIPSASSWNGE
partner: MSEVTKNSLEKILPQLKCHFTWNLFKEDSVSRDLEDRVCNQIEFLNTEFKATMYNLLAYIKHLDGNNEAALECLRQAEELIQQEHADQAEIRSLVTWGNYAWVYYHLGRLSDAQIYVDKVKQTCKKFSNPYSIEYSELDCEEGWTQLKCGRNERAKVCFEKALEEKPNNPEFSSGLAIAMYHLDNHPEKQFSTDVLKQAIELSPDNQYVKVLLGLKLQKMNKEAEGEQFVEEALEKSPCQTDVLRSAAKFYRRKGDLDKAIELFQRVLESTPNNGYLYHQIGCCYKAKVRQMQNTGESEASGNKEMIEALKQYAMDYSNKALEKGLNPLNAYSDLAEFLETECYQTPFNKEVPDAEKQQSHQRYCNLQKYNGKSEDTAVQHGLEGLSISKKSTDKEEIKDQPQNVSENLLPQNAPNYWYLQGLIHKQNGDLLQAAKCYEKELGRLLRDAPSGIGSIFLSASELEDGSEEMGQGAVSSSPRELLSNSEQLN
B2: Segment polarity protein dishevelled homolog DVL-2 (Homo sapiens), O14641 (parent)
chain: MAGSSTGGGGVGETKVIYHLDEEETPYLVKIPVPAERITLGDFKSVLQRPAGAKYFFKSMDQDFGVVKEEISDDNARLPCFNGRVVSWLVSSDNPQPEMAPPVHEPRAELAPPAPPLPPLPPERTSGIGDSRPPSFHPNVSSSHENLEPETETESVVSLRRERPRRRDSSEHGAGGHRTGGPSRLERHLAGYESSSTLMTSELESTSLGDSDEEDTMSRFSSSTEQSSASRLLKRHRRRRKQRPPRLERTSSFSSVTDSTMSLNIITVTLNMEKYNFLGISIVGQSNERGDGGIYIGSIMKGGAVAADGRIEPGDMLLQVNDMNFENMSNDDAVRVLRDIVHKPGPIVLTVAKCWDPSPQAYFTLPRNEPIQPIDPAAWVSHSAALTGTFPAYPGSSSMSTITSGSSLPDGCEGRGLSVHTDMASVTKAMAAPESGLEVRDRMWLKITIPNAFLGSDVVDWLYHHVEGFPERREARKYASGLLKAGLIRHTVNKITFSEQCYYVFGDLSGGCESYLVNLSLNDNDGSSGASDQDTLAPLPGATPWPLLPTFSYQYPAPHPYSPQPPPYHELSSYTYGGGSASSQHSEGSRSSGSTRSDGGAGRTGRPEERAPESKSGSGSESEPSSRGGSLRRGGEASGTSDGGPPPSRGSTGGAPNLRAHPGLHPYGPPPGMALPYNPMMVVMMPPPPPPVPPAVQPPGAPPVRDLGSVPPELTASRQSFHMAMGNPSEFFVDVM
partner: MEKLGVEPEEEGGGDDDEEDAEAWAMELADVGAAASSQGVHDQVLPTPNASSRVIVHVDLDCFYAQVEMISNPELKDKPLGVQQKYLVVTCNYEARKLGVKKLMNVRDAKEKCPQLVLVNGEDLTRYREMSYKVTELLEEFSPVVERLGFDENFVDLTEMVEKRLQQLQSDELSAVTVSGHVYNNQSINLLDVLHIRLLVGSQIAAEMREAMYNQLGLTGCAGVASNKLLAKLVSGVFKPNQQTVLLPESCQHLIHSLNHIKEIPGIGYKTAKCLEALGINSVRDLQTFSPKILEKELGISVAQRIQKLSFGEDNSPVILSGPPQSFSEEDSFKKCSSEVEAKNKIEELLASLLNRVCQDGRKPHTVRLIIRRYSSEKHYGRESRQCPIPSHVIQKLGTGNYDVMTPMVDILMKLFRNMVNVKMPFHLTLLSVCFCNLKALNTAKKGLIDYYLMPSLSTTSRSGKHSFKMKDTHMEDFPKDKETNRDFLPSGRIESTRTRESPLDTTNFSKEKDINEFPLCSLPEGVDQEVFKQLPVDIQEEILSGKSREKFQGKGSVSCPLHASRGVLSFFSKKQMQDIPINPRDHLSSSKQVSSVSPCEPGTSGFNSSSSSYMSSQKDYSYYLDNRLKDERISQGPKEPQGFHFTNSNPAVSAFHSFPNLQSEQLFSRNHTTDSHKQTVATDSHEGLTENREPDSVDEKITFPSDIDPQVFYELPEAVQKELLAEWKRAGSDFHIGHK
B3: Ras association domain-containing protein 7 (Homo sapiens), Q02833 (parent)
chain: MLLGLAAMELKVWVDGIQRVVCGVSEQTTCQEVVIALAQAIGQTGRFVLVQRLREKERQLLPQECPVGAQATCGQFASDVQFVLRRTGPSLAGRPSSDSCPPPERCLIRASLPVKPRAALGCEPRKTLTPEPAPSLSRPGPAAPVTPTPGCCTDLRGLELRVQRNAEELGHEAFWEQELRREQAREREGQARLQALSAATAEHAARLQALDAQARALEAELQLAAEAPGPPSPMASATERLHQDLAVQERQSAEVQGSLALVSRALEAAERALQAQAQELEELNRELRQCNLQQFIQQTGAALPPPPRPDRGPPGTQGPLPPAREESLLGAPSESHAGAQPRPRGGPHDAELLEVAAAPAPEWCPLAAQPQAL
B4: F-box/WD repeat-containing protein 1A (Homo sapiens), Q9Y297 (parent)
chain: MDPAEAVLQEKALKFMCSMPRSLWLGCSSLADSMPSLRCLYNPGTGALTAFQNSSEREDCNNGEPPRKIIPEKNSLRQTYNSCARLCLNQETVCLASTAMKTENCVAKTKLANGTSSMIVPKQRKLSASYEKEKELCVKYFEQWSESDQVEFVEHLISQMCHYQHGHINSYLKPMLQRDFITALPARGLDHIAENILSYLDAKSLCAAELVCKEWYRVTSDGMLWKKLIERMVRTDSLWRGLAERRGWGQYLFKNKPPDGNAPPNSFYRALYPKIIQDIETIESNWRCGRHSLQRIHCRSETSKGVYCLQYDDQKIVSGLRDNTIKIWDKNTLECKRILTGHTGSVLCLQYDERVIITGSSDSTVRVWDVNTGEMLNTLIHHCEAVLHLRFNNGMMVTCSKDRSIAVWDMASPTDITLRRVLVGHRAAVNVVDFDDKYIVSASGDRTIKVWNTSTCEFVRTLNGHKRGIACLQYRDRLVVSGSSDNTIRLWDIECGACLRVLEGHEELVRCIRFDNKRIVSGAYDGKIKVWDLVAALDPRAPAGTLCLRTLVEHSGRVFRLQFDEFQIVSSSHDDTILIWDFLNDPAAQAEPPRSPSRTYTYISR
partner: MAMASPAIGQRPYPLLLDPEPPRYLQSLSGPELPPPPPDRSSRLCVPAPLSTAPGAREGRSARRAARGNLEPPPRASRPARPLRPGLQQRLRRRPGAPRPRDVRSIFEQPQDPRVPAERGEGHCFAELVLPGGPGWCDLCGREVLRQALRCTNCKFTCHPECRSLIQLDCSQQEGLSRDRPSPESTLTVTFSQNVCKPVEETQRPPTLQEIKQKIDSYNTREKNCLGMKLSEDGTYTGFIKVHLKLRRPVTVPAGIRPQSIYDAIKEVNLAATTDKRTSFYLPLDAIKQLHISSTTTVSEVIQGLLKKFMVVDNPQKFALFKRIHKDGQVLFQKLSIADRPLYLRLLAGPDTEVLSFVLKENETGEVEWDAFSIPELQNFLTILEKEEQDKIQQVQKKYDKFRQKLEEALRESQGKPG
B5: Peroxisomal bifunctional enzyme (Homo sapiens), Q08426 (parent)
chain: MAEYTRLHNALALIRLRNPPVNAISTTLLRDIKEGLQKAVIDHTIKAIVICGAEGKFSAGADIRGFSAPRTFGLTLGHVVDEIQRNEKPVVAAIQGMAFGGGLELALGCHYRIAHAEAQVGLPEVTLGLLPGARGTQLLPRLTGVPAALDLITSGRRILADEALKLGILDKVVNSDPVEEAIRFAQRVSDQPLESRRLCNKPIQSLPNMDSIFSEALLKMRRQHPGCLAQEACVRAVQAAVQYPYEVGIKKEEELFLYLLQSGQARALQYAFFAERKANKWSTPSGASWKTASARPVSSVGVVGLGTMGRGIVISFARARIPVIAVDSDKNQLATANKMITSVLEKEASKMQQSGHPWSGPKPRLTSSVKELGGVDLVIEAVFEEMSLKKQVFAELSAVCKPEAFLCTNTSALDVDEIASSTDRPHLVIGTHFFSPAHVMKLLEVIPSQYSSPTTIATVMNLSKKIKKIGVVVGNCFGFVGNRMLNPYYNQAYFLLEEGSKPEEVDQVLEEFGFKMGPFRVSDLAGLDVGWKSRKGQGLTGPTLLPGTPARKRGNRRYCPIPDVLCELGRFGQKTGKGWYQYDKPLGRIHKPDPWLSKFLSRYRKTHHIEPRTISQDEILERCLYSLINEAFRILGEGIAASPEHIDVVYLHGYGWPRHKGGPMFYASTVGLPTVLEKLQKYYRQNPDIPQLEPSDYLKKLASQGNPPLKEWQSLAGSPSSKL
partner: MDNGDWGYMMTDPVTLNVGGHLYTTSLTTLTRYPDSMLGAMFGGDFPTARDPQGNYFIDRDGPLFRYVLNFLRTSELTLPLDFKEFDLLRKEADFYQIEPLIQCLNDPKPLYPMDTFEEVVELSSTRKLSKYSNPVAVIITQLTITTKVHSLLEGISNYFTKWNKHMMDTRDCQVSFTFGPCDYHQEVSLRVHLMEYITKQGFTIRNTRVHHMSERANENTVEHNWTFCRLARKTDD

Variants of: B1
Details: with ifit3_human IFIT3, O14879
E79A was tested, and the “effect of a mutation on the interaction” value was “disrupting interaction strength”.

Variants of: B2
Details: with poli_human POLI
With T535I the “effect of a mutation on the interaction” value was “with no effect”.
For A53V, the “effect of a mutation on the interaction” value was “with no effect”.

Variants of: B3
Details: with nck2_human NCK2, O43639
Chain of nck2_human NCK2, O43639 (O43639 whole entry): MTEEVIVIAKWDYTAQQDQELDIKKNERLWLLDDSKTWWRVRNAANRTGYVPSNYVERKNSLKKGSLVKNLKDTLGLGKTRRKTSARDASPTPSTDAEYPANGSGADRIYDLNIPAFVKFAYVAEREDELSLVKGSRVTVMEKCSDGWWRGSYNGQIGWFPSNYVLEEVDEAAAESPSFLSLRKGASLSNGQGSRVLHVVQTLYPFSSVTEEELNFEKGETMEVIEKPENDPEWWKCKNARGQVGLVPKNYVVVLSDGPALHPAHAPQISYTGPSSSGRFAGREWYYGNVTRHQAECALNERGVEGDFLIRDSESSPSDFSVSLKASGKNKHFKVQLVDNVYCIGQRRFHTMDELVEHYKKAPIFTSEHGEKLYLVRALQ
For R156Q, the “effect of a mutation on the interaction” value was “with no effect”.

Variants of: B4
Details: with rasf5_human RASSF5, Q8WWW0
R594H was tested, and the “effect of a mutation on the interaction” value was “with no effect”.
For T414A, the “effect of a mutation on the interaction” value was “disrupting interaction strength”.
P592H was tested, and the “effect of a mutation on the interaction” value was “with no effect”.
With I439V the “effect of a mutation on the interaction” value was “disrupting interaction strength”.
For L8M, the “effect of a mutation on the interaction” value was “with no effect”.
T601S was tested, and the “effect of a mutation on the interaction” value was “with no effect”.

Variants of: B5
Details: with kctd6_human KCTD6, Q8NC69
For L715S, the “effect of a mutation on the interaction” value was “disrupting interaction strength”.
In the case of R483Q, the “effect of a mutation on the interaction” value is reported as “disrupting interaction strength”.
